# In US20060287243A1, “Stable pharmaceutical compositions including motilin-like peptides” (priority 2005, published 2006):
# Square brackets hold non-standard residues; d marks the D form.
# Columns and labels:
# Format in all cases: physicochemical
# [1] = Stability of motilin-like peptide following autoclaving and storage (HPLC, undegraded peptide remaining); settings: 30 μg/ml in 10 mM sodium acetate buffer pH 5.0, Type I glass vials, autoclaved 121° C. 15 minutes, storage 3 months at 55° C. (FIG. 2)
# Description: A further advantage of the pharmaceutical composition of the present invention is its peptide stability when the composition is subjected to elevated temperatures such as the temperature of steam sterilization. Many peptides are inherently unstable and, when subjected to heat, are known to degrade very rapidly, typically in a few minutes or less. In contrast, in compositions of the present invention, the peptide substantially retains its stability (i.e., remains substantially undegraded and retains a substantial percentage of its initial potency), even after the composition is (1) subjected to steam sterilization (for at least 10 minutes and up to 60 minutes at temperatures of approximately 100° C.-128° C. and typically 121° C.), and (2) subsequently stored in a suitable container (described below) at lower temperatures typically encountered by a pharmaceutical composition, such as about 4° C.-5° C. to about 25° C.
# The motilin-like peptide of SEQ ID NO.: 1 was dissolved at a concentration of 30 μg/ml in 10 mM sodium acetate buffer, pH 5.0. […] The potency of the peptide following storage at each temperature was measured over time by testing samples after incubation of one week, two weeks, three weeks, one month and three months. Potency was determined by using HPLC to measure the amount of undegraded peptide remaining in each sample. […]
# [2] = Storage stability of aqueous buffered composition in Schott Type 1 vials
# Description: Some plastics have also proven to be effective in assisting in the stabilization of the peptide composition. In this regard, preferred plastics are cyclic olefin copolymers, available, for example, from West Pharmaceuticals under the product name CZ resin vials, or from Schott under the product name TopPac vials, or from Alcan packaging under the product name Ticona Topas serum vials. The compositions of the present invention may also be stored in PVC, as well as non-PVC flexible bags. When stored in the above described glass or plastic containers, the above-described storage times at the above-described storage temperatures can be achieved, although for storage periods of at least 18 months, Type I Plus (vapor treated silicon) vials and Type I Plus glass ampules are preferred. […] It will be appreciated by those skilled in the art that the measured stability of pharmaceutical compositions at elevated temperatures, such as 40° C. or higher, may serve as the basis of prediction of stability for longer periods at more typical storage temperatures, such as 20°-25° C. or 4°-8° C., for example. Such “accelerated storage” studies are common in the field of the present invention.
# [3] = Stability of lyophilized formulations of motilin-like peptide, reconstituted in water (HPLC); settings: 30 μg/ml in 10 mM citrate buffer, 1% w/v sucrose, pH 6.0, lyophilized, stored in 20 ml vial at 40° C. for several months (FIG. 5)
# Procedure: The motilin-like peptide including SEQ ID NO.: 1 was dissolved at a concentration of 30 μg/ml in 10 mM citrate buffer and 1% w/v of sucrose (bulking agent) at pH 6.0. The composition was lyophilized by standard techniques and stored in a 20 ml vial at 40° C. The potency of the motilin-like peptide was measured at the time intervals indicated in FIG. 5, by reconstituting the composition in water. Potency was determined by using HPLC to measure the amount of undegraded peptide remaining in each sample. […] (Again, it will be appreciated by those skilled in the art that the stability of pharmaceutical compositions at elevated temperatures, such as 40° C. as in FIG. 5, may serve as the basis of prediction of stability for longer periods at more typical storage temperatures, such as approximately 20° C.-25° C. or 4° C.-8° C., for example).
# [4] = Long-term storage stability of the aqueous buffered composition; settings: pH between approximately 3 and 9, preferably 4.8-5.2
# Procedure: The aqueous pharmaceutical compositions of the present invention provides benefits previously unknown. The motilin-like peptide of pharmaceutical compositions of the present invention remains stable when stored over a wide range of temperatures for extended periods of time. For example, when stored at room temperature or its preferred lower storage temperature of 4° C.-5° C., substantial stability is maintained for significant periods of time. For example, at a storage temperature of approximately 25° C., the peptide contained in the composition of the present invention remains stable for at least 12 months, and more preferably at least approximately 18 months and, even more preferably, up to and even beyond approximately 24 months, retaining a potency of 90% or more as shown, for example, in FIG. 1. At a storage temperature of 5° C., storage with only marginal degradation (and a potency of at least 90-95%) of up to at least 18 months is regularly observed.
# Whether prepared and stored as an aqueous unbuffered solution, an aqueous buffered solution, a ready-to-use or concentrated, or a lyophilized composition that is subsequently reconstituted, the pharmaceutical compositions of the present invention remains potent during storage for extended periods of time. […]
substance,measurement,setting,value
"(Me3N)^+Phe-Val-Pro-Ile-Phe-Thr-Tyr-Gly-Glu-Leu-Gln-D-Arg-Leu-Lys-NH2 ({N,N,N‑trimethyl}-FVPIFTYGELQ[dR]LK-NH2) [SEQ ID NO.: 1, synthetic motilin-like peptide receptor agonist]",potency retained (undegraded peptide remaining by HPLC),[1],greater than 90%
same,stability (maintenance of potency),"[2]; 30 μg/ml, several months at 5° C. to 55° C. (FIG. 4)",demonstrated stability
same,stability (maintenance of potency),"[2]; approximately 5 μg/ml, several months at 5° C. to 55° C. (FIG. 3)",demonstrated stability
same,potency retained (undegraded peptide remaining by HPLC),[3],greater than 90%
same,degradation during storage,[4],only minimal degradation
